Measurements reported in the DeepSol protein solubility set.

Experiment: soluble on expression in E. coli; label from the status in PepcDB or PDB records
With “NIDLDVQNMAQNALKFGYDEIVKRDKDANLSTLNGAMVVVNHQSGDVLALVGGVDYEKSNYNRATQSMRQPGSSFKPFVYQVAINLGYSPMSEIADISRIFEGGAGNNEDWKPKNEGGKFLGLITLKEALTRSRNLATINLALDMGLDVLYSKLMEFGFKDIPPNLSIVLGSFGISPLEYSKFYTMFGNYGTIKDPQIIRQVQDKTGKTIMEFNSNERKVSDEAQSFLVLDMMRNVVEKGTGRNARVKDIEIAGKTGTTNKSVDAWFCGLTPEIEAIIWYGNDNNKPMRYTEGGARTAAPVFREFLTQYIEKFPDTTR” the “soluble on expression in E. coli” value was “not soluble”.
With “MGHHHHHHSHMQEEEEESWSTSSDLTISISEDDLILESPEPQPNPGGKMEGEDGIEALKLIHAEQERVALSTEKNCILQTLSSPDSEKESSTNAPTREPGQTPDSDVPRAQVGQHVATLKEHDNSVKEEATALLRKALTEECGRRSAIHSSESSCSLPSILNDNSGIKEAKPAVWLNSVPTREQEVSSGCGDKSKKENVAADIPITETEAYQLLKKATLQDNTNQTENRFQKTDASVSHLSGLNIGSGAFETKTANKIASEASFSSSEGSPLSRHENKKKPVINLKSNALWDESDDSNSEIEAALRPRNHNTDDSDDFYD” the “soluble on expression in E. coli” value was “soluble”.
In the case of “MGHHHHHHSHMVPSSAETGGTNYLAPGGLSDSQLLLEPGDRSHWCVVAYWEEKTRVGRLYCVQEPSLDIFYDLPQGNGFCLGQLNSDNKSQLVQKVRSKIGCGIQLTREVDGVWVYNRSSYPIFIKSATLDNPDSRTLLVHKVFPGFSIKAFDYEKAYSLQRPNDHEFMQQPWTGFTVQISFVKGWGQCYTRQFISSCPCWLEVIFNSR”, the “soluble on expression in E. coli” value was “not soluble”.
With “MGSDKIHHHHHHMKNTVAFKTITGRDAVYKAYDAFLGNMGIPHEEVNVDTRFGKAFVIAAGKKDAPVLVLLHGSGINSVMWIKDMEKYSEHYRVYAVDLQGEPGKSDGKQLSFEGSDFDNWLHDVFAGLSVEKASIAGISLGAWLALKFAIANPQMVDKLVLLCPAGVGPQKTSFAYVSLFHMLLWGEKGVERLFRKVNGGKPIPQEIMDYQKLLGNNFNFRREQVPLFSDAELTQLTIPSILFVGQKDVMFHSLKTAQRYRNLVPDAKVIVLREAGHTLIGLVDDILEFLQN” the “soluble on expression in E. coli” value was “not soluble”.
In the case of “MKNIHSIEFYTGSKEELLPDFEKDFPYIASRAELDKYIGGYVPWHWHRTVELFYMESGSIEYDTPGGKILFPAGSGGMINPNVLHMTKAISQREKNIQLLHIFDVSLLAGEQGSRIEQKYIAPVITAPQIEVIPLFPGNAEEERILKLLAASFRLSSDEFGYEIKLREALTEIWLMLFELSCSMREKKGEHNKSNDKIKLMMIYIHEHYREKISILELAAAAYLSERECYRVFHDCLHMTPVEYITTYRLQIACQMLAKGQEPITVISHECGLGSSSYFGKVFREYAYCSPTEYRKKWQNSDM”, the “soluble on expression in E. coli” value was “soluble”.
For “GSAHRFPALTQEQKKELSEIAQSIVANGKGILAADESVGTMGNRLQRIKVENTEENRRQFREILFSVDSSINQSIGGVILFHETLYQKDSQGKLFRNILKEKGIVVGIKLDQGGAPLAGTNKETTIQGLDGLSERCAQYKKDGVDFGKWRPVLRIADQCPSSLAIQENANALARYASICQQNGLVPIVEPEVIPDGDHDLEHCQYVTEKVLAAVYKALNDHHVYLEGTLLKPNMVTAGHACTKKYTPEQVAMATVTALHRTVPAAVPGICFLSGGMSEEDATLNLNAINLCPLPKPWKLSFSYGRALQASALAAWGGKAANKEATQEAFMKRAMANCQAAKGQYVHTGSSGAASTQSLFTACYTY”, the “soluble on expression in E. coli” value was “soluble”.
With “MWQQKSFQQNEKGVLYLVPTPIGNLEDMTFRAIRILKEADLIAAEDTRQTKKLCNYFEIETPVMSYHEHNKEVSGKKILEKLDEGKTVALVSDAGMPCISDPGYDIVVEAVAEQYHVIPLPGANAALTALIASGLQTKQFYFYGFLQRNKKERKMELEKLRYVQTTMMFYEAPHRLDDTLISMQEVLGNREIVLCRELTKKFEEFIRGTVEEAIEWTKQNEVRGEFCILVAGSTEEPAPEEQWWESISVYNHIEHYINEKGMNSKEAIKTVAKDRDLSKRDVYQIYHVDKK” the “soluble on expression in E. coli” value was “soluble”.
With “MGSDKIHHHHHHMSRLERLVTIDSLIRSRTYPSVADFCARFELSERAIFADLAYLRERIGAPLAYSRRNGGYYYRDPTWVMPMLQVTEGELLAFLISTELSRRYLGTPFAAPLRRLLQRMEAYITEQIVVHPDALLAHLTFQPGALAAVDPELVQVLHECIRECYPVEITYFTASRQELTHRLIEPYHLFLARGDLHVIAFDHLRGELRQFALYRIRQWQVRRHERFVRNPQIDIAAYLRNGFVVEGGTQPLLIEIAFDREQAPYIRERQWHATQQLEDQPDGGVILRFQSGALGEIKRWVLGYGSHARVLSPPELVQMVADELRKAAALYT” the “soluble on expression in E. coli” value was “not soluble”.
In the case of “MILAQKQKQVIRLNLISTWRKLISSTKIPNWLSQTKIQSKYQTRGIYPGSFFQKTIFRKDGSMSVQRTLQKYMDDWKRISHFDFCLLQEDNSILVTTCDRRLPAESKLEEFRNSTALCLSNATCCLYKITEKNEQLLLIVWGSEDSVSTIGELAVCQIESILESYAEKNDKNAFMQKLLLGDYTDVEAFNRARKLHISSSARRAVFLVETRQSKDEHALATIKNIFSARTHDFITSIDNRGIIVVRELTSTETYDDLENIAHMLVDMLGTEAMTQAWVAYSNTANDLKDLSNAYKEARTALEIGKIFYAERNVFGYRTLGIGRLLYQLPVSICEMFIQEIFGDESLDSIDGETLAIIRTFFENNLNLSETSRQLYVHRNTLVYRFEKIQKRFGLDLRTFEDAMTFKLAMLVSRYLRYQNRT”, the “soluble on expression in E. coli” value was “not soluble”.
For “MIASKMPREVRLPSFQIEIIGAMSTYKIYCQSLLPLSHSALLIMVAPSFPLLNLPEKSLKEVFCNMSVVQQTCISMISEKTKNLVRKFHIFKQVQIWLDFSDSLRCYMSLKGISLSIWHTPMWH”, the “soluble on expression in E. coli” value was “not soluble”.
For “MNLSIFGLKNIPYLKEGDSIEKLIEESIKTSEFFIEDNDVLCIASKVVSIAEGQVMSLNEIQVSDVAKEIHRNIPRKDPRIIEIMLNLVNRDLSRLDIKKNYIGCRLENGLKLTSGGIDRKSVDEVFLLPNNPDASAKRISEYLKKSLGKNVAVVITDSDGREDKRGATQVAIGIYGIHPLRKTEVIDSQGETIKFQEETLCDMIAACAGLVMGQRGTGIPAVLIRGLDYKWSENTSIKEALNE”, the “soluble on expression in E. coli” value was “not soluble”.
In the case of “MSLAQWNKQDSIRLQELLNGDGELKINTEAVKSIHFDFQSDKDNIKGTPIMSEDKPWMKFLKDLPKNFGDTTKWVRPNFVRLTPYTPYTTWHEDPVNDPIFLKRKDSLTISWKLNIKLIPGLRNGYVILPAGMDQTVTPSNNPLIGGLDADKFLYESLTKRGRAIRRNRNRAKGWKIYQSYVPTRQDSILFPRISKVSEQDSLPKQDTLLIKKDSAIINQNSLLLKDKINGKDQTEGHHHHHH”, the “soluble on expression in E. coli” value was “soluble”.
In the case of “MVQTYRSPVRIYKHPFEIVMAAYEMRFPTCPQIPIFVGSEVTYEYKSVDGAEWVIDRKCQLNVEAPYLVKKIAGVDYVYFSQKNSLDRRKRTLDIEATNISFSSRINVKENCTYYVHAENENWTCFEQSASLDVKNFFGLESAVEKLAVRQYGANLAKGKEILEFFIEELLKKTTHIERFRDADQEETTSATDSAIEMKELSDGDAVLVNDRPPMLAAETDEMRTARATASFDDACRVCMIIYCRIFIIISSYFFNFPADSKLEAEYIRRFLGQLSPLEESRLCEIKYSLQAHHKGKLPNDAHLLRFLRARDFDVAKAKDMVHASIIWRKQHNVDKILEEWTRPTVIKQYFPGCWHNSDKAGRPMYILRFGQLDTKGMLRSCGVENLVKLTLSICEDGLQRAAEATRKLGTPISSWSLVVDLDGLSMRHLWRPGVQCLLKIIEIVEANYPETMGQVLVVRAPRVFPVLWTLISPFIDEKTRKKFMVSGGSGGDLKEELRKHIEEKFIPDFLGGSCLTTNCGLGGHVPKSMYLPVEEQEGASSSEDPLHSTYTSTATWRGYPVEVVIPIETAGCVLTWDFDVLKNDCEFSLYFSTEKIEQPAVRDGAQSPTTILNPVEMVSAAIGGASHQHPDLQCAPELKIGTPQLRLEEKAVVFQEGDSMQGSHYCSRAGTYIMQWRVPETAAGHSSTFDFGSHKCRLIYYYEILNSENFRGSVASLESCRSSSFSSIAPPTPPTPGTPRNP”, the “soluble on expression in E. coli” value was “not soluble”.
With “MSGEVGSNECLVSTNEVQEDSPAVTESSSANGSSPVRRGRGRPPKGTKVPKVKPAPKPYSGAPRGRPRKSDQVAKSPVAKSPVASSSADASPKRSRGAPKSYAEDVAATKPAKTDVATPALAALTGEKKGRGRPKKN” the “soluble on expression in E. coli” value was “soluble”.
With “MNKDNSPSESLVNSSASEDKTVKTSMSANNPSINDSSLPERLPAMCGCDSQNREESANSGVQLSDHANESLSKQADDVIYEGGLEDKDSVFRAIIEDDDACEVLDDGIDNCEVEIPVAIECHLCNEMMNLCLRRTRYRGQAREYPAYRCNRKGCQTFRSIRKVFGNCMSDVDNSGDATTRTMIYHPPHKVRKTSPGEFSDDDSKEFVVQRVYIPKIDNRNKDQSVKSLSVTDRMRKANQDRAIVFSEFADQLRRDIVANKRVRIKKHVEEDQQGTLFYISKELNPQEVIELQDVIIKTLISMRKIPPPMTMDDLPLFANCPYSKKAVDAGEFDMSETEERPRPKLPKTIYQNTRTHSDSLTERSRHFTYDELKHSMEANAEGPSTCRIGISRSERNSESLQWIGLKTYEDSTDGFAKSVNSEGERQQGINGQIDDEVFEDESRFKPVASMQDVMRTLSTPSTLRPPVSPLMKSFSSMDSSNFKNPINAHPPMFFSDPHFLINNNQFNSPTPFYALNSYFPSFPMDSSQVYQNATDEHFTPSGASEVVCTEQTPGHHFTYIHPDSGVRLTDPSAFLTSFVPSPITKVPPINFNDETSRSRSASAPSTSVYNTGEFERSHKKYENEEDEKLMDNQNFSDEQPKE” the “soluble on expression in E. coli” value was “not soluble”.
In the case of “MGSDKIHHHHHHMNTIHSCVLQIHLTIETKMADTKAIQQLDLNLLKIFEALYSEQNMTLASKSLFITPSAVSHAIKRLRLVLNDPLFVRQGLQMQPTAACQRMAPQLISALNRIRQVLQQCGEFDPLTTEQTFKIAIHEALESQIMPTLIKQVVKLIPHAKIASMSLSRENIARQLANGEVDLAIDVARAVNAPLAHKTLLSDPFCVLIDRRQHAMHLEPSTKLTPTDYANAEHVAVSSRPIGRVMEDILLQQQGVNRHIKYRCQSYQTAAKIVIGSPLMLTLPRSIAEQFIHPDLHVCTMPFELPDIDTHLYWHMNTETDPAFVWLRAQIEMAIIAE”, the “soluble on expression in E. coli” value was “not soluble”.
For “MLQGKAFLITGAGGALSRALIPAFHQAGARLFLSDPRPERMAERAQAVGAKTFVADLTRLEEALALARFVEEEAPLYGVVHTVGGFAAGRFLDTDPGLYDWMLDLNLRTTFNLLKAVLPYMAKRGEGFFAAFAAGPAWTGAGPGRALYTAAKTALASLLRSLQGEVEGVRFLVVYPMGTLDTEANRKAMPEADFSRWIAPELVAKVVVEAAGAKGGRLLELPIYPPL”, the “soluble on expression in E. coli” value was “soluble”.
In the case of “MSLADERIEVLKDILLELHHGASAESVQERFNQHFKGVSAIEISMMEHELMNADTGITFEDVMGLCNVHANLFKGAIADVDVPDAEQEGHPVKVFKDENLALRAAIMRIRRIIENYTKPENEDFRQEILKGLKHQFDLLGQFYHHYTRKEKLFFPIMERYGHDSPPKVMWGVDDDIRDLFKDAKATLAKLPDGSIEELSQKFEAFAKEFEEMIFKEEAILLMILLESFTQDDWLQIASESDAYGYAILKPTEKWIPHRESFDNEADADTSDNQLADALNQVQDANSPEGTNTKVINTPEGQFTITFKPKEKEAAADRTTQQPFGNGYLSVEQANLILNHLPLEITFVNKDDIFQYYNDSVPAAEMVFKRTPSQVGRNVELCHPPKVLDKVKKVFELLRNGQRDKVNMWFQSERLGKFVYVTYAAVRDQAGDFQGVLEYVQDIKPFFELDSEFNRDEGHHHHHH”, the “soluble on expression in E. coli” value was “soluble”.
